{"source": "the Human Domainome abundance scans (Beltran et al. 2025)", "parents": {"B1": {"name": "Membrane-associated guanylate kinase, WW and PDZ domain-containing protein 2, residues 601 to 682; numbered along this chain, Q86UL8 (parent)", "chain": "AELMTLTIVKGAQGFGFTIADSPTGQRVKQILDIQGCPGLCEGDLIVEINQQNVQNLSHTEVVDILKDCPIGSETSLIIHRG"}}, "note": "± gives the uncertainty stated by the source."}
{"variants_of": "B1", "assay": "abundance fitness (aPCA) (normalised: wild type 0, dead -1); higher = more abundant; growth selection in yeast, the domain comes from the species named", "conditions": "Homo sapiens"}
{"variant": "N56W", "abundance fitness": "0.197 ± 0.28"}
{"variant": "I49G", "abundance fitness": "-1.08 ± 0.31"}
{"variant": "T5K", "abundance fitness": "-0.024 ± 0.057"}
{"variant": "A12R", "abundance fitness": "-0.029 ± 0.032"}
{"variant": "Q52Y", "abundance fitness": "-0.024 ± 0.05"}
{"variant": "S58R", "abundance fitness": "-0.119 ± 0.075"}
{"variant": "Q13C", "abundance fitness": "-0.06 ± 0.052"}
{"variant": "V47R", "abundance fitness": "-0.018 ± 0.073"}
{"variant": "G72K", "abundance fitness": "-0.139 ± 0.099"}
{"variant": "K67N", "abundance fitness": "-0.022 ± 0.18"}
{"variant": "I79T", "abundance fitness": "-0.063 ± 0.12"}
{"variant": "S22C", "abundance fitness": "-0.117 ± 0.2"}
{"variant": "N50E", "abundance fitness": "0.013 ± 0.16"}
{"variant": "Q13Y", "abundance fitness": "-0.096 ± 0.057"}
{"variant": "Q13M", "abundance fitness": "-0.104 ± 0.04"}
{"variant": "I8M", "abundance fitness": "-0.053 ± 0.053"}
{"variant": "V62T", "abundance fitness": "-0.03 ± 0.13"}
{"variant": "K67A", "abundance fitness": "-0.072 ± 0.083"}
{"variant": "E2S", "abundance fitness": "-0.061 ± 0.034"}
{"variant": "I8S", "abundance fitness": "-0.059 ± 0.037"}
{"variant": "H80F", "abundance fitness": "-0.128 ± 0.19"}
{"variant": "C69W", "abundance fitness": "-0.25 ± 0.11"}
{"variant": "D64M", "abundance fitness": "-0.308 ± 0.14"}
{"variant": "F17P", "abundance fitness": "-1.04 ± 0.1"}
{"variant": "S73L", "abundance fitness": "-0.102 ± 0.14"}
{"variant": "V9K", "abundance fitness": "-0.128 ± 0.049"}
{"variant": "E42M", "abundance fitness": "0.036 ± 0.063"}
{"variant": "N53R", "abundance fitness": "-0.061 ± 0.033"}
{"variant": "G16T", "abundance fitness": "-0.048 ± 0.037"}
{"variant": "I65G", "abundance fitness": "-0.295 ± 0.038"}
{"variant": "A12N", "abundance fitness": "-0.077 ± 0.07"}
{"variant": "T5V", "abundance fitness": "-0.088 ± 0.037"}
{"variant": "I8K", "abundance fitness": "-0.261 ± 0.056"}
{"variant": "H59D", "abundance fitness": "-0.176 ± 0.093"}
{"variant": "L57T", "abundance fitness": "-0.128 ± 0.14"}
{"variant": "S22E", "abundance fitness": "-0.114 ± 0.097"}
{"variant": "T18E", "abundance fitness": "0 ± 0.039"}
{"variant": "L32T", "abundance fitness": "-0.023 ± 0.12"}
{"variant": "V54C", "abundance fitness": "-0.086 ± 0.052"}
{"variant": "S22D", "abundance fitness": "0.048 ± 0.27"}
{"variant": "L57E", "abundance fitness": "-0.038 ± 0.079"}
{"variant": "G43T", "abundance fitness": "-0.121 ± 0.12"}
{"variant": "I8F", "abundance fitness": "0.046 ± 0.074"}
{"variant": "G72H", "abundance fitness": "-0.356 ± 0.28"}
{"variant": "I71Q", "abundance fitness": "-0.161 ± 0.096"}
{"variant": "C69T", "abundance fitness": "0.085 ± 0.11"}
{"variant": "I8L", "abundance fitness": "0.036 ± 0.036"}
{"variant": "L3F", "abundance fitness": "0.016 ± 0.066"}
{"variant": "A12L", "abundance fitness": "-0.05 ± 0.039"}
{"variant": "N50S", "abundance fitness": "-0.03 ± 0.068"}
{"variant": "L45M", "abundance fitness": "0.089 ± 0.17"}
{"variant": "G14H", "abundance fitness": "-0.03 ± 0.041"}
{"variant": "L57Q", "abundance fitness": "-0.081 ± 0.13"}
{"variant": "V54I", "abundance fitness": "-0.07 ± 0.04"}
{"variant": "L32C", "abundance fitness": "-0.197 ± 0.18"}
{"variant": "I31C", "abundance fitness": "-0.185 ± 0.093"}
{"variant": "G25F", "abundance fitness": "-0.314 ± 0.19"}
{"variant": "Q26F", "abundance fitness": "-0.194 ± 0.23"}
{"variant": "S76E", "abundance fitness": "-0.044 ± 0.14"}
{"variant": "I31M", "abundance fitness": "-0.084 ± 0.12"}
{"variant": "K10Q", "abundance fitness": "-0.123 ± 0.042"}
{"variant": "N56F", "abundance fitness": "-0.099 ± 0.25"}
{"variant": "G16S", "abundance fitness": "-0.027 ± 0.035"}
{"variant": "E61H", "abundance fitness": "-0.051 ± 0.15"}
{"variant": "F17L", "abundance fitness": "-0.124 ± 0.032"}
{"variant": "K67Y", "abundance fitness": "-0.226 ± 0.14"}
{"variant": "M4K", "abundance fitness": "-0.002 ± 0.055"}
{"variant": "E61V", "abundance fitness": "-0.132 ± 0.089"}
{"variant": "L66E", "abundance fitness": "-0.522 ± 0.33"}
{"variant": "Q52I", "abundance fitness": "0.038 ± 0.051"}
{"variant": "I8V", "abundance fitness": "-0.002 ± 0.033"}
{"variant": "I31W", "abundance fitness": "-0.665 ± 0.15"}
{"variant": "D64L", "abundance fitness": "-0.128 ± 0.087"}
{"variant": "N50K", "abundance fitness": "-0.011 ± 0.12"}
{"variant": "T18F", "abundance fitness": "-0.149 ± 0.088"}
{"variant": "T18V", "abundance fitness": "-0.024 ± 0.033"}
{"variant": "N53S", "abundance fitness": "-0.022 ± 0.033"}
{"variant": "S76M", "abundance fitness": "-0.003 ± 0.11"}
{"variant": "I65Y", "abundance fitness": "-0.047 ± 0.063"}
{"variant": "V54G", "abundance fitness": "-0.523 ± 0.049"}
{"variant": "M4Q", "abundance fitness": "-0.092 ± 0.044"}
{"variant": "G72Y", "abundance fitness": "-0.419 ± 0.24"}
{"variant": "C69H", "abundance fitness": "-0.329 ± 0.2"}
{"variant": "V62G", "abundance fitness": "-1.07 ± 0.17"}
{"variant": "Q30K", "abundance fitness": "0.363 ± 0.34"}
{"variant": "E74K", "abundance fitness": "-0.23 ± 0.34"}
{"variant": "F17S", "abundance fitness": "-1.29 ± 0.12"}
{"variant": "L66R", "abundance fitness": "-1.11 ± 0.24"}
{"variant": "Q55W", "abundance fitness": "-0.133 ± 0.082"}
{"variant": "R27V", "abundance fitness": "0.047 ± 0.12"}
{"variant": "S22R", "abundance fitness": "0.03 ± 0.13"}
{"variant": "G36A", "abundance fitness": "-0.241 ± 0.24"}
{"variant": "I79C", "abundance fitness": "-0.115 ± 0.12"}
{"variant": "I34Y", "abundance fitness": "0.013 ± 0.093"}
{"variant": "D33W", "abundance fitness": "-0.117 ± 0.066"}
{"variant": "I31R", "abundance fitness": "-0.283 ± 0.081"}
{"variant": "I34H", "abundance fitness": "-0.153 ± 0.092"}
{"variant": "C37Y", "abundance fitness": "-0.036 ± 0.21"}
{"variant": "Q52C", "abundance fitness": "-0.052 ± 0.066"}
{"variant": "V9Y", "abundance fitness": "-0.039 ± 0.075"}
{"variant": "I19R", "abundance fitness": "-1.16 ± 0.25"}
{"variant": "R81M", "abundance fitness": "-0.387 ± 0.12"}
{"variant": "G82H", "abundance fitness": "-0.303 ± 0.27"}
{"variant": "T24M", "abundance fitness": "-0.031 ± 0.057"}
{"variant": "I78E", "abundance fitness": "-0.086 ± 0.17"}
{"variant": "V28N", "abundance fitness": "-0.564 ± 0.29"}
{"variant": "G11K", "abundance fitness": "-0.09 ± 0.058"}
{"variant": "P38C", "abundance fitness": "-0.158 ± 0.11"}
{"variant": "N56Y", "abundance fitness": "0.074 ± 0.42"}
{"variant": "L57N", "abundance fitness": "0.076 ± 0.16"}
{"variant": "F17W", "abundance fitness": "-0.022 ± 0.039"}
{"variant": "G36Q", "abundance fitness": "-0.054 ± 0.2"}
{"variant": "Q35S", "abundance fitness": "-0.005 ± 0.13"}
{"variant": "S73I", "abundance fitness": "-0.011 ± 0.18"}
{"variant": "Q55A", "abundance fitness": "-0.069 ± 0.095"}
{"variant": "I31K", "abundance fitness": "0.197 ± 0.41"}
{"variant": "R27P", "abundance fitness": "-0.382 ± 0.18"}
{"variant": "T75L", "abundance fitness": "-0.045 ± 0.072"}
{"variant": "I19A", "abundance fitness": "-0.542 ± 0.19"}
{"variant": "C37D", "abundance fitness": "-0.052 ± 0.1"}
{"variant": "E61M", "abundance fitness": "0.08 ± 0.28"}
{"variant": "D64P", "abundance fitness": "-0.202 ± 0.2"}
{"variant": "I49Y", "abundance fitness": "-0.14 ± 0.28"}
{"variant": "C41N", "abundance fitness": "-0.012 ± 0.081"}
{"variant": "D33C", "abundance fitness": "-0.092 ± 0.08"}
{"variant": "I8A", "abundance fitness": "-0.021 ± 0.038"}
{"variant": "N50Y", "abundance fitness": "-0.386 ± 0.27"}
{"variant": "L40T", "abundance fitness": "-0.498 ± 0.097"}
{"variant": "V62A", "abundance fitness": "-0.079 ± 0.089"}
{"variant": "G14N", "abundance fitness": "0.025 ± 0.041"}
{"variant": "P38H", "abundance fitness": "-0.363 ± 0.36"}
{"variant": "G16P", "abundance fitness": "-0.006 ± 0.043"}
{"variant": "E48I", "abundance fitness": "-0.871 ± 0.47"}
{"variant": "G72E", "abundance fitness": "-0.018 ± 0.097"}
{"variant": "H80P", "abundance fitness": "-0.395 ± 0.14"}
{"variant": "P38Q", "abundance fitness": "-0.121 ± 0.14"}
{"variant": "E42P", "abundance fitness": "0.061 ± 0.075"}
{"variant": "R81E", "abundance fitness": "-0.419 ± 0.1"}
{"variant": "C37W", "abundance fitness": "-0.287 ± 0.18"}
{"variant": "K29R", "abundance fitness": "-0.047 ± 0.062"}
{"variant": "Q30P", "abundance fitness": "-0.103 ± 0.11"}
{"variant": "P38S", "abundance fitness": "-0.056 ± 0.094"}
{"variant": "D68R", "abundance fitness": "-0.136 ± 0.068"}
{"variant": "G25V", "abundance fitness": "-0.514 ± 0.051"}
{"variant": "V54W", "abundance fitness": "-0.779 ± 0.11"}
{"variant": "Q35L", "abundance fitness": "-0.115 ± 0.094"}
{"variant": "V9C", "abundance fitness": "-0.12 ± 0.056"}
{"variant": "H59T", "abundance fitness": "-0.132 ± 0.1"}
{"variant": "I71F", "abundance fitness": "-0.004 ± 0.21"}
{"variant": "P23M", "abundance fitness": "-0.072 ± 0.068"}
{"variant": "V9R", "abundance fitness": "-0.052 ± 0.03"}
{"variant": "I31T", "abundance fitness": "-0.097 ± 0.089"}
{"variant": "E2R", "abundance fitness": "-0.098 ± 0.032"}
{"variant": "L32G", "abundance fitness": "0.021 ± 0.059"}
{"variant": "I31Y", "abundance fitness": "-0.221 ± 0.14"}
{"variant": "V54A", "abundance fitness": "-0.053 ± 0.04"}
{"variant": "I31P", "abundance fitness": "-0.181 ± 0.28"}
{"variant": "N50C", "abundance fitness": "-0.71 ± 0.43"}
{"variant": "G14C", "abundance fitness": "-0.11 ± 0.038"}
{"variant": "G25M", "abundance fitness": "-0.191 ± 0.062"}
{"variant": "G25Q", "abundance fitness": "-0.255 ± 0.058"}
{"variant": "R81K", "abundance fitness": "-0.21 ± 0.17"}
{"variant": "S73N", "abundance fitness": "-0.359 ± 0.33"}
{"variant": "Q52A", "abundance fitness": "-0.037 ± 0.044"}
{"variant": "R27D", "abundance fitness": "-0.42 ± 0.3"}
{"variant": "I19L", "abundance fitness": "-0.012 ± 0.085"}
{"variant": "V63R", "abundance fitness": "-0.072 ± 0.068"}
